Data on 15 sequences can be found in the DeepSol protein solubility set.

A short description of this data set: soluble on expression in E. coli; label from the status in PepcDB or PDB records.
As to “MQALYQLSATGAQQQNQQIPIGLSNSLLYQQLAAHQQIAAQQHQQQLAVSAAHQTQNNIMLATSAPSLINHMENSTDGKVKDDPNSDYDLQLSIQQQLAAAAQAAQMGQTQIGPQIVGQQGQPVVATTAGSTNGSAAVTQPDPSTSSGPDGPKRLHVSNIPFRFRDPDLKTMFEKFGVVSDVEIIFNERGSKGFGFVTMERPQDAERARQELHGSMIEGRKIEVNCATARVHSKKVKPTGGILDQMNPLMAQSALAAQAQMNRALLLRSPLVAQSLLGRGAALIPGMQQPAFQLQAALAGNPLAQLQGQPLLFNAAALQTNALQQSAFGMDPAAVQAALLANEQARFQLAAAAAQGNEYIMYHQAKQQELPGRIPSSGNASAFGEQYLSNALATASLPSYQMNPALRTLNRFTPY”, the “soluble on expression in E. coli” value is listed as “not soluble”.
The result for “MEFGRNPLSMTSTKPTLLNVLDDVGEAALHAIPKVDDITSHKIYVIAVQPVSFSDIESQAVKQDASSPNNCCCSCMHGVLRFFAELCCNCCAGCVQGICQG” reads “not soluble”.
For “MAPQSNNSTTFVSKTQHYLKVKKPLLERQRRARMNKCLDTLKTLVAEFQGDDAILRMDKAEMLEAALVFMRKQVVKQQAPVSPLPMDSFKNGYMNAVSEISRVMACTPAMSVDVGKTVMTHLGVEFQRMLQADQVQTSVTTSTPRPLSPASSGYHSDNEDSQSAASPKPVEETMWRPWLEHHHHHH”, the “soluble on expression in E. coli” value is “not soluble”.
As for “GPGSMTDFPKLNRIKSDDENMEKIHVAARKGQTDEVRRLIETGVSPTIQNRFGCTALHLACKFGCVDTAKYLASVGEVHSLWHGQKPIHLAVMANKTDLVVALVEGAKERGQMPESLLNECDEREVNEIGSHVKHCKGQTALHWCVGLGPEYLEMIKILVQLGASPTAKDKADETPLMRAMEFRNREALDLMMDTVPSKSSLRLDYANKQGNSHLHWAILINWEDVAMRFVEMGIDVNMEDNEHTVPLYLSVRAAMVLLTKELLQKTDVFLIQACPYHNGTTVLPDRVVWLDFVPAAADPSKQEVLQLLQEKLDEVVRSLNTGAGGAVKRKKKAAPAVKRMKLAPSAPVRTRSRSRARSSAVSK”, the “soluble on expression in E. coli” value is recorded as “soluble”.
Consider “MSLSPGKKRAMINRDHPKLSISQQCKLVSLSRSAFYYTPAGIDADTLSMMKEIDRVFTKYPFFGSRQIAAYLRREGIVVGRHRVRRLMAKMGLEAVYKRPRTSQPHPQHPVFPYLLRKMVIDRPNQVWCADITFVPVRNGFLYLVAIMDWATRKVLSWRLSNTMHADFCVEALSEAIARYGPPEIMNTDQGSQFTGSAWITTLTEAGVRISMDGRGRYLDNIFIERLWRSLKQEAIYLEEINEGFRARRVIKGWMAFYNTSRPHSALDRQTPDDAYWAGLEERHAAEGHHHHHH”, for which the “soluble on expression in E. coli” value was “not soluble”.
“MTDFTTDIAQALVRKEDLKEVFRTHLENAVNTLLATELTAFLDYEKYDRGGFGSGNSRNGTYPRTLHTEFGDLHLSIPRDRNGEFHQQTISPYKRSNDTLESFVIHMYQKGVTTGEITDLLERMYGHHYTPQTISNMTKTMEKQVEAFKARTLAKRYVCVYLDATFIAIKRDTVSKEAVYLAIGIQEDGTKEVLAYTIAPTESALVWKEVLEDLQNRGVEDVLLFVSDGLKGIVDSIQSLFPSSSYQLCCVHLSRNLAHKVRVSDRAEVCGDFKRVYRATSKQEGQKALDDFVTKWKKVYPRATKSLEENPFILTFYDFPQAIWRSIYSTNLIESFNKQLKKYSKRKEQFPNEPSIERFLVSQFEPYNQKFSTRCHLGFDLARAELVSMFERRK”: the “soluble on expression in E. coli” value is “soluble”.
The result for “MIFSVRGEVLEVALDHAVIEAAGIGYRVNATPSALATLNQGSQARLVTAMVVREDSMTLYGFSDAENRDLFLALLSVSGVGPRLAMATLAVHDAAALRQALADSDVASLTRVPGIGRRGAERIVLELADKVGPVGASGLTVGTAADGNAVRGSVVEALVGLGFAAKQAEEATDQVLDGELGKDGAVATSSALRAALSLLGKTR” reads “soluble”; that for “MDILSDIANAVLPQDVVSKVESKRAVAVLRGTAVFGTVWLTQKAEGEETEFEGEIKGLSPGLHGFHIHQYGDSTDGCTSAGPHFNPCKMNHGGRDSVVRHVGDLGNVEAGADGVAKIKFSDKVVSLFGANTVIGRSMVVHVDRDDLGQGIDDKAEESLKTGNAGARAACGVIALAAPA”, “not soluble”.
The result for “MSLKALINGTIYTSFNPLKKVSGLVISHGKVIYAGDSEVAKKIVELSGGEIVDLKGKYVMPAFFDSHLHLDELGMSLEMVDLRGAKSIEELIQRLKRGKGRIIFGFGWDQDELGEWPTRKELNAIDKPVFIYRKCFHVAVANDKMLELLNLTPSKDFDEDTGIIKEKSLEEARKVINERVLTVEDYVYYIKRAQEHLLDLGVKSVSFMSVNEKALRALFYLEREGKLSINVFAYVTPEVLDKLESIGLGRFQGNRLTIAGVKLFTDGSLGARTALLSKPYSDDPSTSGQLVMEREELIRITEKARSLGLDVAIHAIGDKALDVALDVFETTGFPGRIEHASLVRDDQLERVKNLKVRLSVQPHFIISDWWIVERVGEERVKWVYRFKDLMKVAELGFSTDSPIEPADPWLTVDAAVNRGKGKVKLYELTKDQALDIKDALHSYTYGSARVSLASDIGKLEPGFKAEYIILDRDPLVVKEGHHHHHH” reads “soluble”; that for “MAKTYDYLFKLLLIGDSGVGKTCVLFRFSDDSFNNSFISTIGIDFKIRTIELDGKKIKLQIWDTAGQERFRTITTAYYRGAMGIILVYDITNERSFENIKNWIRNIEEHAASDVERMIIGNKCDIEERREVSRDRGEQLAIEYGTKFLETSAKANLNIDEAFFTLARDIKSKMEQNEMRAGGSVSNTGRVNVGGSGTQKKSFFSNWSCNLL”, “not soluble”; that for “MGSSHHHHHHSSGLVPRGSHMFLTRRDPPLSSFWTKVQYQRLKELNASGEQLEMGFSDALSRDRAFQGIEHQLMSQGKRHLEQLRTVKHRPALLELEEKLAKALHQQGFVQVVTPTIITKSALAKMTIGEDHPLFSQVFWLDGKKCLRPMLAPNLYTLWRELERLWDKPIRIFEIGTCYRKESQGAQHLNEFTMLNLTELGTPLEERHQRLEDMARWVLEAAGIREFELVTESSVVYGDTVDVMKGDLELASGAMGPHFLDEKWEIFDPWVGLGFGLERLLMIREGTQHVQSMARSLSYLDGVRLNIN”, “soluble”.
The result for “MKFFVFALVLALMISMISADSHEKRHHGYRRKFHEKHHSHREFPFYGDYGSNYLYDNLEHHHHHH” reads “not soluble”; that for “MAVAYSIGIDSGSTATKGILLADGVITRRFLVPTPFRPATAITEAWETLREGLETTPFLTLTGYGRQLVDFADKQVTEISCHGLGARFLAPATRAVIDIGGQDSKVIQLDDDGNLCDFLMNDKCAAGTGRFLEVISRTLGTSVEQLDSITENVTPHAITSMCTVFAESEAISLRSAGVAPEAILAGVINAMARRSANFIARLSCEAPILFTGGVSHCQKFARMLESHLRMPVNTHPDAQFAGAIGAAVIGQRVRTRR”, “soluble”.
Take “MGSDKIHHHHHHMLSNNCSILLIDDDADVLDAYTQLLEQAGYHVSACNNPFDAREQVPKDWPGIVLSDVCMPGCSGIDLMTLFHQDDDLLPILLITGHGDVPMAVEAVKKGAWDFLQKPIDPGKLLTLVDAALRQRQSVIARRQYCQQKLQVELIGRSQWTVRYRQRLQQLAETDIAVWLYGEPGTGRMTGARYLHQLGRHAEGPFIACELTPANAHTLNELIAQAQGGTLVLSHPEHLTHEQQHQLVQLQSHEKRPFRLIGIGSASLVELAASSQIVAELYYCFAMTQIGCQPLSKRPDDIEPLFHHYLQKTCQRLNHPVPEVDAGLLKGMMRRVWPNNVRELANAAELFAVGVLPLAETVNPLMHIGEPTPLDQRVEDVERQIITEALNIHQGRINEVAEYLLIPRKKLYLRMKKYGLNKEHYKGV”: the “soluble on expression in E. coli” value was “not soluble”.
The result for “MGSDKIHHHHHHMSIKLDHRLLYLRVIEKIKSDIDDGVYKEGEKLPSEFELSKQLGVSRATLREALRILEDENIVIRKHGVGTFINARPPFTSGIEELYSVTEMIARAGMIPTSEVLSSEMVQPTERDRERFQLGPDELVYRIERIRLAGDVPVVYCVDKIPSHYIKNEEQFTSSTSLFDALEKELGRRVTHAVTHIEPRIDPKIAEQLHTDQPLLVLRQTHYDELDRSVLYSANYFRADKFDFHVIRKRV” reads “not soluble”.
